“And” between values parts separate entries of the source, which are not always exact repeats. Equal values may be shown once.
Assays:
[1] = Adenosine deaminase (ADA) activity assay; type: biochemical
Description: The adenosine deaminase (ADA; EC 3.5.4.4) activity of any of the ADA2 described herein, including a wildtype, variant or conjugate, can be assessed using methods well known in the art. ADA activity assays commonly measure, directly or indirectly, the rate of production a product of the enzymatic reaction. For example, the production of inosine or ammonia can be directly or indirectly measured. In other examples, the decrease of the substrate of the enzyme, e.g., adenosine or 2-deoxyadenosine, is measured. The decrease of the substrate, or the increase of the product, can be measured directly by spectrophotometry, or indirectly, by subsequent enzymatic or oxidation-reduction reactions that use chromogenic substrates or change the absorbance spectra of the reaction.
For example, some commercially available adenosine deaminase (ADA) assays, such as ADA assay kits available from BQ Kits (San Diego, Calif.; Cat. No. BQ014EALD) and Diazyme (Poway, C A; Cat. No. DZ117A-K), utilize colorimetric substrate and spectrophotometric reading to determine the conversion of adenosine to inosine by ADA enzymes. In these assays, the production of inosine is detected by multi-step enzymatic reactions that produce a chromogenic dye. […] The change in absorbance at 556 nm (ΔA556) over time, at 37° C., is measured. […]

[2] = system: adenosine in tumor extracellular matrix; assay: Adenosine in MH194+PSC4 tumor extracellular matrix (microdialysis, LC/MS); type: in vivo, mice; details: for Adenosine concentration in ECM, Mean: n = 8; for Adenosine concentration in ECM, individual tumors: single animal values; for adenosine concentration in tumor ECM: 0.03 mg/kg
Protocol: To assess the effects of PEGADA2 on adenosine in tumor extracellular matrix, mice bearing peritibial MH194+PSC4 tumors received vehicle, the polypeptide whose sequence is set forth in SEQ ID NO:20, which contains the amino acid replacement K374D (Zavialov numbering; K371D mature numbering), at 0.03 mg/kg, or the polypeptide whose sequence is set forth in SEQ ID NO: 273, which contains the amino acid replacements R222Q/S265N (Zavialov numbering; R219Q/S262 mature numbering), at 0.03 mg/kg, 24 or 48 hours prior to microdialysis. Each of the polypeptides were PEGylated as described above in Examples 8 and 22). The mice were anesthetized using isofluorane, and a heating pad was used to maintain body temperature. A small incision was made on the tumor. A microdialysis probe with 55,000 Da molecular weight cut-off (CMA, Stockholm, Sweden) was inserted into the tumor, via a guided cannula. The length of the microdialysis probe used in this study was 10 mm. Once the probe was in position, the cannula was withdrawn leaving the probe completely embedded in the tumor tissue. Dulbecco's phosphate buffered saline (DPBS; Thermo Fisher Scientific) with ADA inhibitors (Pentostatin and 5-iodotubercindin) was perfused through the probe at a flow rate of 1 μl/min for 30 minutes. Then the samples were collected at a flow rate of 0.5 μl/min for 60 minutes. Microdialysis perfusates were analyzed by Liquid chromatography-mass spectrometry (LC/MS) at MicroConstants (9050 Camino Santa Fe, San Diego, Calif. 92121).

B1: ADA2: wild-type human adenosine deaminase 2, mature form SEQ ID NO:5, homodimer (protein, listed as Homo sapiens)
chain: IDETRAHLLLKEKMMRLGGRLVLNTKEELANERLMTLKIAEMKEAMRTLIFPPSMHFFQAKHLIERSQVFNILRMMPKGAALHLHDIGIVTMDWLVRNVTYRPHCHICFTPRGIMQFRFAHPTPRPSEKCSKWILLEDYRKRVQNVTEFDDSLLRNFTLVTQHPEVIYTNQNVVWSKFETIFFTISGLIHYAPVFRDYVFRSMQEFYEDNVLYMEIRARLLPVYELSGEHHDEEWSVKTYQEVAQKFVETHPEFIGIKIIYSDHRSKDVAVIAESIRMAMGLRIKFPTVVAGFDLVGHEDTGHSLHDYKEALMIPAKDGVKLPYFFHAGETDWQGTSIDRNILDALMLNTTRIGHGFALSKHPAVRTYSWKKDIPIEVCPISNQVLKLVSDLRNHPVATLMATGHPMVISSDDPAMFGAKGLSYDFYEVFMGIGGMKADLRTLKQLAMNSIKYSTLLESEKNTFMEIWKKRWDKFIADVATK
modifications: ADA2 mature protein
With B1 the “Km of ADA2 for adenosine relative to that of ADA1” value [1] was “approximately 100 times”.

B2: K374D: ADA2 variant SEQ ID NO:20 (protein)
chain: IDETRAHLLLKEKMMRLGGRLVLNTKEELANERLMTLKIAEMKEAMRTLIFPPSMHFFQAKHLIERSQVFNILRMMPKGAALHLHDIGIVTMDWLVRNVTYRPHCHICFTPRGIMQFRFAHPTPRPSEKCSKWILLEDYRKRVQNVTEFDDSLLRNFTLVTQHPEVIYTNQNVVWSKFETIFFTISGLIHYAPVFRDYVFRSMQEFYEDNVLYMEIRARLLPVYELSGEHHDEEWSVKTYQEVAQKFVETHPEFIGIKIIYSDHRSKDVAVIAESIRMAMGLRIKFPTVVAGFDLVGHEDTGHSLHDYKEALMIPAKDGVKLPYFFHAGETDWQGTSIDRNILDALMLNTTRIGHGFALSKHPAVRTYSWDKDIPIEVCPISNQVLKLVSDLRNHPVATLMATGHPMVISSDDPAMFGAKGLSYDFYEVFMGIGGMKADLRTLKQLAMNSIKYSTLLESEKNTFMEIWKKRWDKFIADVATK
modifications: human ADA2 K371D, mature numbering
With B2 the “Adenosine concentration in ECM, Mean” value ([2]; 24 hours after 0.03 mg/kg) was 19.54 µM, the “Adenosine concentration in ECM, individual tumors” value ([2]; 24 hours after 0.03 mg/kg) was 49.02 µM and 12.72 µM and 29.64 µM and 13.58 µM and 12.54 µM and 7.48 µM and 2.04 µM and 29.30 µM and the “adenosine concentration in tumor ECM” value ([2]; 24 hours post treatment) was 19.5 µM. The “Adenosine concentration in ECM, Mean” value ([2]; 48 hours after 0.03 mg/kg) was 11.06 µM, the “Adenosine concentration in ECM, individual tumors” value ([2]; 48 hours after 0.03 mg/kg) was 23.13 µM and 0.07 µM and 6.47 µM and 2.77 µM and 20.92 µM and 1.64 µM and 27.54 µM and 5.95 µM and the “adenosine concentration in tumor ECM” value ([2]; 48 hours post treatment) was 11 µM.
